B1: chimeric ARNT-GFP protein (ARNT residues 82–470 fused to Aequorea GFP) (domain or fragment)
chain: not shown

Common to all, as to experiment: FRET or BRET
The target of test [1] is T1, His-tagged NPAS3 (neuronal PAS domain protein 3) (UniProt Q9QZQ0 56-455).
T1 sequence (looked up): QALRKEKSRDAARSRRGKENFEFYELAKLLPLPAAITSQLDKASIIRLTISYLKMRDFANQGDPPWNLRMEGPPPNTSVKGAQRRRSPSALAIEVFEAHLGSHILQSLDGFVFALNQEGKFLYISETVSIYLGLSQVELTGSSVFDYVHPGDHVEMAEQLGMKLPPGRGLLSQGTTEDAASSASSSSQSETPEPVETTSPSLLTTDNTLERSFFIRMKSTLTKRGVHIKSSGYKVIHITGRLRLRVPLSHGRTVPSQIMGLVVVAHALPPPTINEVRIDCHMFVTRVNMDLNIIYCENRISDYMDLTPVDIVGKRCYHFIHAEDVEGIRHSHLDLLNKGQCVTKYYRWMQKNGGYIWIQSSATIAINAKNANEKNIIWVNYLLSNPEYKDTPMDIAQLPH

The target of test [2] is ARNT F446L-GFP (ARNT residues 82–470 fused to Aequorea GFP) (mouse, UniProt P53762 82-470, F446L).
Test [3] has as its target B1.

ARNT F446L-GFP (ARNT residues 82–470 fused to Aequorea GFP), sequence (P53762 82-470 F446L): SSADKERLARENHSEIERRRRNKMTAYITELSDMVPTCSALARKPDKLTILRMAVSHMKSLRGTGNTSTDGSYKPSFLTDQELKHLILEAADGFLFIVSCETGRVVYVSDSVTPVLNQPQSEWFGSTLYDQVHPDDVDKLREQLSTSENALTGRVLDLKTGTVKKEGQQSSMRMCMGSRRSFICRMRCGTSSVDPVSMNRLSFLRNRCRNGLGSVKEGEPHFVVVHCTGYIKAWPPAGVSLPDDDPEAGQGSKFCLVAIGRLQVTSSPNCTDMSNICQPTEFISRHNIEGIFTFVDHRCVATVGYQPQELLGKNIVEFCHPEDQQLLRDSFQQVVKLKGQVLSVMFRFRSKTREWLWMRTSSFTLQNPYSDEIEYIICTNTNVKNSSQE

The Kd is the equilibrium constant for the complex coming apart. Low readings indicate tighter binding, high ones weaker binding. B1: the Kd in test [1] is 8.6 nM.

B2: mouse HIF-2α bHLH-PAS-A-PAS-B region (3–361), His-tagged (domain or fragment)
chain: not shown
For B2, the Kd is around 0.8 nM in test [2] and 29.1 nM in test [3].

B3: HIF-2α G323E (3–361), His-tagged (domain or fragment)
chain: not shown
B3: in test [3], the Kd was around 10.5 nM.

B4: HIF-2α mutant M252A (3–361), His-tagged (domain or fragment)
chain: not shown
With B4, in test [3], the Kd is 1.4 nM.

B5: His-tagged HIF-1α (domain or fragment)
chain: not shown
For the molecule B5, in test [3], the Kd was determined as 11.7 nM.

For the origin of these results see PMC6447045 (Nature chemical biology, 2019).
